The target in series [1] is MidT substrate domain fused to the omega subunit of RNA polymerase.
Series [2] has as its target p130cas substrate domain fused to the omega subunit of RNA polymerase.

B1: protein tyrosine phosphatase 1B (PTP1B) (protein)
chain: MEMEKEFEQIDKSGSWAAIYQDIRHEASDFPCRVAKLPKNKNRNRYRDVSPFDHSRIKLHQEDNDYINASLIKMEEAQRSYILTQGPLPNTCGHFWEMVWEQKSRGVVMLNRVMEKGSLKCAQYWPQKEEKEMIFEDTNLKLTLISEDIKSYYTVRQLELENLTTQETREILHFHYTTWPDFGVPESPASFLNFLFKVRESGSLSPEHGPVVVHSSAGIGRSGTFCLADTCLLLMDKRKDPSSVDIKKVLLEMRKFRMGLIQTADQLRFSYLAVIEGAKFIMGDSSVQDQWKELSHEDLEPPPEHIPPPPRPPKRILEPHN
On to B1, for which the “difference in luminescence between systems containing PTP1B or PTP1B (C215S)” value in series [1] is given as “The difference in luminescence between systems containing PTP1B or PTP1B (C215S) was greatest for MidT”.

B2: Src kinase (protein)
chain: MSKPQTQGLAKDAWEIPRESLRLEVKLGQGCFGEVWMGTWNGTTRVAIKTLKPGTMSPEAFLQEAQVMKKLRHEKLVQLYAVVSEEPIYIVTEYMSKGSLLDFLKGETGKYLRLPQLVDMAAQIASGMAYVERMNYVHRDLRAANILVGENLVCKVADFGLARLIEDNEYTARQGAKFPIKWTAPEAALYGRFTIKSDVWSFGILLTELTTKGRVPYPGMVNREVLDQVERGYRMPCPPECPESLHDLMCQCWRKEPEERPTFEYLQAFLEDYFTSTEPQYQPGENL
Take B2: the “luminescence (LuxAB), bacterial two-hybrid system with induced Src” value was “luminescence increased most prominently for p130cas and MidT” in series [1]; “luminescence increased most prominently for p130cas and MidT” in series [2].

The record behind these values is US20210206813.
